Assays:
[1] = system: Ramos B cells; experiment: Subcellular distribution of AID fusion proteins determined by HCS microscopy; format: cell-based, human; settings: for Nuclear mCherry, mean: corrected for cytoplasmic baseline
Protocol: Cells were fixed in 3.7% formaldehyde at a density of 2×10^6 cells/ml and stained with whole cell stain (HCS CellMask, Invitrogen) and DAPI (0.2 μg/ml). Fixed cells were then washed, resuspended in PBS and spun down in a 96-well μclear microplate (Greiner Bio One) for imaging. Cells were imaged by Thermo Scientific ArrayScan VTI HCS reader, analyzing 3000-6000 cells in each treatment group. Cells with very low or very high mCherry signals were eliminated, gating based on the mock transduction control (low) and eliminating cells with signals more than 5 SD from the mean (high). The HCS Colocalization BioApplication protocol was used to determine nuclear and whole cell boundaries in individual cells as defined by DAPI and HCS CellMask, respectively, thereby defining the cytoplasmic region as the region between nuclear and whole cell boundaries. The average signal in the nuclear and cytoplasmic compartments was determined in individual cells by measuring the total intensity of mCherry signal divided by area within each compartment. The ratio of nuclear to cytoplasmic signal (N/C) was calculated as the ratio of the average signals of nuclear and cytoplasmic mCherry.
G1, S, and G2/M phase cells were distinguished by ranking DNA content as determined by total DAPI signal, and specific fractions of the population assigned to G1, S and G2/M phases (FIG. 16A). HCS results were expressed in terms of average signal, to ensure independence of cell size, which increases during cell cycle (FIG. 16).
Cells were fixed and stained with whole cell stain (HCS CellMask, Invitrogen) and DAPI, washed, and imaged by Thermo Scientific ArrayScan VTI HCS reader, analyzing 3000-6000 cells in each treatment group. To enable accurate comparisons among different transductant populations, nuclear signal for each cell was corrected by subtraction of the corresponding baseline value, as established by linear regression analysis. HCS results were expressed in terms of average signal, to ensure independence of cell size.

[2] = system: Ramos B cells; experiment: sIgM loss frequency assay (surrogate for SHM); format: cell-based, human; settings: day 7 after sorting mCherry+ cells
From the text: sIgM loss frequency provides a convenient surrogate assay for SHM (45, 46). To determine fractions of sIgM− cells, 2-5×10^5 cells were fixed in 3.7% formaldehyde and stained with anti-human IgM (1:500, Souther Biotech), and sIgM− variants quantified by FACS as described (47). To establish that selective pressure was not sufficient to affect the frequency of sIgM loss, we assayed loss of mCherry signal posttransduction (FIG. 18).

B1: AID^F193A-mCherry: AID-mCherry carrying the AID F193A mutation, which prevents nuclear export (protein, UniProt Q9GZX7 1-198, looked up, variant F193A)
Single-stranded DNA cytosine …: MDSLLMNRRKFLYQFKNVRWAKGRRETYLCYVVKRRDSATSFSLDFGYLRNKNGCHVELLFLRYISDWDLDPGRCYRVTWFTSWSPCYDCARHVADFLRGNPNLSLRIFTARLYFCEDRKAEPEGLRRLHRAGVQIAIMTFKDYFYCWNTFVENHERTFKAWEGLHENSVRLSRQLRRILLPLYEVDDLRDAARTLGL
modifications: C-terminal mCherry fusion
notes: AID-mCherry carrying the AID F193A mutation, which prevents nuclear export
In the case of B1, the “subcellular localization by HCS across cell cycle” value ([1]; G1, S, G2/M phase cells) is reported as “persistent nuclear localization”, the “Cytoplasmic mCherry, mean” value ([1]; G1 phase cells) is reported as 66.4 and the “Total mCherry, mean” value ([1]; G1 phase cells) is reported as 117.5. The “Nuclear mCherry, mean” value ([1]; G1 phase cells) was 75.4, the “Cytoplasmic mCherry, mean” value ([1]; G2/M phase cells) was 60.2 and the “Total mCherry, mean” value ([1]; G2/M phase cells) was 109.7. For the same molecule, the “Nuclear mCherry, mean” value ([1]; G2/M phase cells) was 63.6, the “Cytoplasmic mCherry, mean” value ([1]; S phase cells) was 58.6 and the “Total mCherry, mean” value ([1]; S phase cells) was 103.2. For the same molecule, the “Nuclear mCherry, mean” value ([1]; S phase cells) was 56.8, the “Cytoplasmic mCherry, mean” value ([1]; whole transductant population) was 62.9 and the “Total mCherry, mean” value ([1]; whole transductant population) was 111.4. For the same molecule, the “Nuclear mCherry, mean” value ([1]; whole transductant population) was 67.5 and the sIgM loss rates [2] was “greatly elevated”.

Reference: patent US20160369258A1, “RESTRICTING NUCLEAR PROTEIN TO SPECIFIC PHASES OF THE CELL CYCLE” (UNIVERSITY OF WASHINGTON, priority 2014, published 2016)
